# Experimental data published in publication PMC10928576, “Cpne7 deficiency induces cellular senescence and premature aging of dental pulp” (Aging Cell, 2023).
# Experiments:
# hDPCs [1] = assay: Mouse subcutaneous ex vivo transplantation (HA/TCP, PCL), hDPCs; set-up: species or system human cells in immunocompromised mice; details: hDPCs + 100 mg HA/TCP with rCPNE7 100 ng/mL in PCL, 6 weeks, vs control, n = 3
# Experimental: (§1) The hDPCs, ADSCs, BMSCs, GFs, and PDLSCs (2 × 10^6) were mixed with 100 mg of hydroxyapatite/tricalcium phosphate ceramic powder (Zimmer) alone or with rCPNE7 (100 ng/mL) in an 0.5% fibrin gel. The poly ε‐caprolactone (PCL: Mw 80,000, Sigma–Aldrich, Oakville, ON, Canada) was wrapped around the mixed cells and transplanted subcutaneously into immunocompromised mice (NIHbg‐nu‐xid; Harlan Laboratories) for 6 weeks (n = 3, each group).
# [2] = tested on: bone marrow stem cells (BMSCs); assay: Mouse subcutaneous ex vivo transplantation (HA/TCP, PCL), BMSCs; format: in vivo, immunocompromised mice; details: rCPNE7 treatment
# Experimental: as §1
# [3] = tested on: human dental pulp cells (hDPCs); assay: Live-cell imaging of hDPC morphology with or without rCPNE7; format: cell-based; details: rCPNE7 100 ng/mL for 24 h, then differentiation media 7 days, vs control, n = 3
# Experimental: (§2) The hDPCs were obtained from the Seoul National University Dental Hospital, and the experimental protocol was accepted by the Institutional Review Board of the Seoul National University (S‐D20140007). Informed consent was obtained from patients. Human DPCs were isolated and used in an in vitro experiment as described previously (Jung et al., [2011]). Human DPCs were cultured in minimum essential medium α (Gibco BRL, 12571063) supplemented with 10% heat‐inactivated fetal bovine serum (FBS; Gibco BRL, 16000044) and antibiotic‐antimycotic (Gibco BRL, 15240062) at 37°C in an atmosphere with 5% CO2. The cells were then treated with recombinant CPNE7 protein (rCPNE7, 100 ng/mL; Origene, TP306428) or CPNE7‐derived peptide (CPNE7‐DP, 10 μg/mL). After oxidative stress‐induced DNA damage using Hydrogen Peroxide Solution (H2O2; Merck, H1009) rCPNE7 was treated after replacement with a new culture medium (α‐MEM).
# The morphologic change of hDPCs treated with or without rCPNE7 was measured by live‐cell imaging (n = 3, each group). After being treated with rCPNE7 for 24 h, the cells were differentiated for 7 days and scanned for 2 days. Bright‐field images of the cells were acquired using a confocal laser scanning microscopy system (LSM980, Zeiss, Germany). […] Timelapse images collected from a single Z plane were recorded at 8‐min intervals.
# hDPCs [4] = assay: RNA-sequencing of rCPNE7-treated hDPCs; format: cell-based, human; details: n = 3
# Experimental: The isolated RNA (n = 3, each group) was shipped to Macrogen (Seoul, Korea) for the library preparation, sequencing, and analysis of data. The cDNA Library for sequencing was prepared using TruSeq Stranded mRNA LT Sample Prep Kit. Total RNA was randomly fragmented, converted to complementary DNA (cDNA), and amplified according to the manufacturer's protocol. The cDNA was then ligated to sequencing adapters. Sequencing was performed on Illumina's HiSeq2500 platform. HISAT2 was used for mapping trimmed reads to reference genome (UCSC mm10), and the transcript assembly was performed using StringTie. To identify differentially expressed genes (DEGs), the expression profile was calculated for each sample and normalized to FPKM. KEGG database and Gene Ontology were used to perform functional annotation and gene‐set enrichment analysis on DEGs for known gene annotation. Genes with |fc| 1.5 and independent T‐test raw p‐value <0.05 were counted as significant.
# [5] = tested on: shCpne7-transfected hDPCs; assay: DNA damage rescue model in shCpne7-transfected hDPCs (western blot); format: cell-based, human; details: hDPCs treated after shCpne7 transfection; rCPNE7 100 ng/mL or CPNE7-DP 10 μg/mL
# Experimental: as §2, with “(α‐MEM). […]” for “(α‐MEM).”
# Cellular proteins (30 μg) were separated by 10% or 15% sodium dodecyl sulfate‐polyacrylamide gel electrophoresis (SDS‐PAGE) and transferred to polyvinylidene fluoride (PVDF) membranes. […] Labeled protein bands were detected under an enhanced chemiluminescence system (Amersham Biosciences/GE Healthcare). […] Semi‐quantitative analyses were performed using Image J software (National Institute of Health, MD, USA) (n = 3, each group).
# [6] = tested on: periodontal ligament stem cells (PDLSCs); assay: Mouse subcutaneous ex vivo transplantation (HA/TCP, PCL), PDLSCs; format: in vivo, immunocompromised mice
# Experimental: as §1
# (§3) Figure S1. (A) The gingival fibroblasts (GFs) or (B) periodontal ligament stem cells (PDLSCs) were mixed with 100㎎ of hydroxyapatite/tricalcium phosphate (HA) particles alone (control) or with rCPNE7 in a poly ε-caprolactone (PCL) spaces and transplanted subcutaneously into immunocompromised mice for 6 weeks. White arrows indicate newly formed mineralized tissues. Representative immunofluorescence images of DSP (red) were observed (n=3). DAPI (blue) was counterstained to indicate the nucleus. Scale bars: 50㎛.
# hDPCs [7] = assay: Senescence β-galactosidase (SA-β gal) staining of H2O2-treated hDPCs; format: cell-based, human
# Experimental: as §2
# Human DPCs were fixated with Fixative Solution (Cell Signaling Technology, #9860) at room temperature for 15 min. Rinsed twice with PBS, the cells were then stained with β‐Galactosidase Staining Solution (Cell Signaling Technology, #9860) at 37°C overnight in a dry incubator (no CO2). Cells were observed using light microscopy (Primovert, Zeiss, Germany) (n = 3, each group).
# dentinal damage sites = details: treated onto dentinal damage sites; ref Lee et al., [2020]; cited from earlier work
# Text: However, little is known about how odontoblasts age and survive through the days beyond entering dormancy, which actually comprise the major part of their life span. Aging is defined as a gradual loss of physiologic tissue integrity and impaired function, ultimately leading to cell death. Aged pulp is characterized by lower cell population, pulp stem cell tiredness, and, overall, reduced responsiveness to external stimuli (Bernick & Nedelman, [1975]). It has been reported that one of the survival mechanisms of aging odontoblasts is autophagy, which involves degradation and turnover of cellular ...
# hDPCs [8] = assay: γ-H2AX / P21 western blot in H2O2-treated hDPCs; format: cell-based, human; details: H2O2 + rCPNE7, after 48 h, vs H2O2 only
# Experimental: Cellular proteins (30 μg) were separated by 10% or 15% sodium dodecyl sulfate‐polyacrylamide gel electrophoresis (SDS‐PAGE) and transferred to polyvinylidene fluoride (PVDF) membranes. The PVDF membranes were blocked for 1 h with 5% nonfat dry milk in Tris‐buffered saline containing 0.1% Tween 20 (TBS‐T) and incubated overnight at 4°C with the primary antibody diluted in TBS‐T (1:5000). After washing, membranes were incubated for 1 h with the appropriate secondary antibodies. Labeled protein bands were detected under an enhanced chemiluminescence system (Amersham Biosciences/GE Healthcare). All reactions were performed in triplicate. Semi‐quantitative analyses were performed using Image J software (National Institute of Health, MD, USA) (n = 3, each group).
# [9] = tested on: adipogenic stem cells (ADSCs); assay: Mouse subcutaneous ex vivo transplantation (HA/TCP, PCL), ADSCs; format: in vivo, immunocompromised mice; details: adipose stem cells, rCPNE7 treatment
# Experimental: as §1
# hDPCs [10] = assay: γ-H2AX immunofluorescence in hDPCs; format: cell-based, human; details: rCPNE7 after 30 min of 1 mM H2O2, vs H2O2 only
# Experimental: Human DPCs and tissue sections were treated with phosphate‐buffered saline (PBS) and 0.5% Triton X‐100 for permeabilization. After washing and blocking, cells and tissue samples were incubated overnight at 4°C with γ‐H2AX (1:100, Cell Signaling Technology, #9718) and CPNE7 (1:100) in blocking buffer (PBS and 2% bovine serum albumin). Subsequently, FITC‐conjugated anti‐rabbit secondary antibody (1:500) or Cy3‐conjugated anti‐rabbit (1:500) was applied. Cells were visualized using confocal microscopy (LSM980, Zeiss, Germany). The chromosomal DNA in the nucleus was stained with 4′,6‐diamidino‐2‐phenylindole (DAPI). The microtubules were detected using α‐TUBULIN antibodies (1:1000; Santa Cruz), and F‐ACTIN was stained with Alexa Fluor 488 or rhodamine‐conjugated phalloidin (Invitrogen). Flag‐tagged rCPNE7 was detected using Flag‐antibodies (1:500; Sigma–Aldrich), and TAU was detected by TAU antibodies (1:100; CUSABIO). Immunofluorescence staining of TAU, F‐ACTIN, and α‐TUBULIN was analyzed using the IMARIS cell imaging software (Bitplane) (n = 3, each group).
# hDPCs [11] = assay: Live-cell imaging of intracellular ROS (DCFDA); format: cell-based, human; details: rCPNE7 treatment 15 min after H2O2 treatment, n = 3
# Experimental: Human DPCs were stained with DCFDA‐cellular ROS assay kit (Abcam, ab113851) for 40 min at 37°C in a humidified environment at 5% CO2. Then, live cell imaging was performed with a filter set appropriate for fluorescein (FITC) (n = 3, each group). Low light conditions were maintained to avoid photobleaching and photo‐oxidation of DCF.
# hDPCs [12] = tested on: hDPCs
# [13] = tested on: gingival fibroblasts (GFs); assay: Mouse subcutaneous ex vivo transplantation (HA/TCP, PCL), GFs; format: in vivo, immunocompromised mice
# Experimental: as §1, §3
# hDPCs [14] = assay: Comet assay; format: cell-based, human; details: 24 h, 1 mM H2O2 + rCPNE7, vs H2O2 only, n = 3
# Experimental: Human DPCs were combined with Comet Agarose (Abcam, ab238544) at 1/10 ratio (v/v), mixed by pipetting, and immediately transferred onto the top of the Comer Agarose Base Layer Slide (Abcam, ab238544). Set horizontally, the slides were incubated at 4°C in the dark for 15 min, and placed in a small basin/container containing pre‐chilled Lysis Buffer (Abcam, ab238544). They were immersed in the buffer for 1 h at 4°C in the dark. After 1 h, aspiration of the Lysis Buffer from the container was done and replaced with a pre‐chilled Alkaline Solution (Abcam, ab238544), followed by electrophoresis chamber filled with the Alkaline Electrophoresis Solution. Voltage was applied to the chamber for 30 min at 1 volt/cm. The slides were then rinsed with pre‐chilled DI H2O and replaced with cold 70% Ethanol for 5 min. The slide was removed from the 70% Ethanol and allowed to air dry. Once the slide was completely dry, staining with Vista Green DNA Dye (Abcam, ab238544) was done at room temperature for 15 min. Cells were visualized using confocal microscopy (LSM980, Zeiss, Germany) (n = 3, each group).
molecule,measurement,setting,value
"rCPNE7: recombinant CPNE7 protein (Origene, TP306428) (protein, UniProt Q9UBL6 1-633, looked up) Copine-7: MSAGSERGAAATPGGLPAPCASKVELRLSCRHLLDRDPLTKSDPSVALLQQAQGQWVQVGRTEVVRSSLHPVFSKVFTVDYYFEEVQRLRFEVYDTHGPSGFSCQEDDFLGGMECTLGQPAQKWLLQVVMRVSVDVLGPAGHCAKHFLCCTESSHLARTGPSFLLRYDDLCLPWATAGAVRWWTCRGGHTQGWQIVAQKKVTRPLLLKFGRNAGKSTITVIAEDISGNNGYVELSFRARKLDDKDLFSKSDPFLELYRVNDDQGLQLVYRTEVVKNNLNPVWEAFKVSLSSLCSCEETRPLKCLVWDYDSRGKHDFIGEFSTTFEEMQKAFEEGQAQWDCVNPKYKQKRRSYKNSGVVVLADLKFHRVYSFLDYIMGGCQIHFTVAIDFTASNGDPRNSCSLHYINPYQPNEYLKALVSVGEICQDYDSDKRFSALGFGARIPPKYEVSHDFAINFNPEDDECEGIQGVVEAYQNCLPRVQLYGPTNVAPIISKVARVAAAEESTGKASQYYILLILTDGVVTDMADTREAIVRASRLPMSIIIVGVGNADFTDMQVLDGDDGVLRSPRGEPALRDIVQFVPFRELKNASPAALAKCVLAEVPKQVVEYYSHRGLPPRSLGVPAGEASPGCTP",odontoblast-like differentiation and dentin-like tissue-forming capacity ex vivo,hDPCs [1],enhanced odontoblast‐like differentiation and dentin‐like tissue‐forming capacity
same,odontoblastic differentiation upon treatment,[2],did not undergo odontoblastic differentiation
same,cellular process morphology,[3],elongation of a uni‐directional cellular process was observed
same,mRNA expression levels of histone and chromatin-related genes,hDPCs [4],significantly increased
same,expression level of γ-H2AX (western blot),[5],evidently diminished
same,amount of newly formed DSP-positive mineralized tissue,"[6]; PDLSCs + HA/TCP with rCPNE7 in PCL spaces, 6 weeks, vs control, n = 3",slightly greater amount
same,odontoblastic differentiation upon treatment,"[6]; PDLSCs, rCPNE7 treatment",did not undergo odontoblastic differentiation
same,progress of cellular senescence (SA-β gal),"hDPCs [7]; hDPCs in growth media containing rCPNE7 for 72 h after oxidative stress (1 mM H2O2) for an hour, vs control",progressed more slowly than the control
same,number of SA-β gal-positive dental pulp cells,"hDPCs [7]; hDPCs passage 3, 1 mM H2O2 + rCPNE7, an hour later, vs H2O2 only, n = 3",significantly decreased
same,dentin formation at dentinal damage sites,dentinal damage sites,tertiary dentin formation of tubular nature
same,protein expression level of γ-H2AX (western blot),hDPCs [8],hardly detected
same,odontoblastic differentiation upon treatment,[9],did not undergo odontoblastic differentiation
same,accumulation of DNA damage (γ-H2AX immunofluorescence),hDPCs [10],rarely observed
same,intracellular ROS level (DCFDA fluorescence),hDPCs [11],gradually decreased back to the normal level
same,cell viability (WST-8),"hDPCs [12]; rCPNE7 after 30 min treatment of 1 mM or 2 mM H2O2, 48 h, vs H2O2 only",cell viability was higher
same,cell-to-cell contact (light microscopy),"hDPCs [12]; rCPNE7 after 30 min treatment of H2O2, vs H2O2 only",more organized
same,amount of newly formed DSP-positive mineralized tissue,"[13]; GFs + HA/TCP with rCPNE7 in PCL spaces, 6 weeks, vs control, n = 3",slightly greater amount
same,odontoblastic differentiation upon treatment,"[13]; GFs, rCPNE7 treatment",did not undergo odontoblastic differentiation
same,length of comet tail (fragmented DNA),hDPCs [14],much shorter
